Measured values published in patent US20220372155A1 (LYVGEN BIOPHARMA, published 2022).

T1: human B7H4 expressed on CHO cells (human, UniProt Q7Z7D3 25-282)
T1 construct: whole, on cells; also called VCTN1
T1 sequence (looked up): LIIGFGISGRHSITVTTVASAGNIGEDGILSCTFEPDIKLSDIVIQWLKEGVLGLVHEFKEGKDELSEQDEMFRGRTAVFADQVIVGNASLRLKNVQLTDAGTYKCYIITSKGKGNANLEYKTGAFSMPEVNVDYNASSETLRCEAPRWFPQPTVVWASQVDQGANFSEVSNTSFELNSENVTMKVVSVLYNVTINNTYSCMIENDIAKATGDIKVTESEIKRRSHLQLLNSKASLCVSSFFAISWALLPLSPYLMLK


What was measured:
[1] = target: T2, human CD40 expressed on CHO cells (human, UniProt P25942 21-277); assay: FACS, CHO cells
T2 construct: whole, on cells; also used for the reporter cells over-expressing human CD40; also called cellular CD40; CHO-CD40 cells

[2] = target: T1, human B7H4 expressed on CHO cells; assay: FACS, CHO cells
[3] = target: T3, Human CD40 ECD protein (mouse IgG2a Fc tag) (human, UniProt P25942 21-193); assay: bridging ELISA, coated B7H4, soluble CD40 ECD-mFc
T3 construct: extracellular domain; also called Human CD40-msFc; human recombinant CD40; not shown: mouse IgG2a Fc tag
Procedure: Anti-B7H4/CD40 bi-specific antibodies were analyzed by ELISA for their simultaneous binding to recombinant human B7H4 and human CD40. Briefly, human B7H4 protein was diluted and coated onto an ELISA plate with a volume of […] by incubation at 4° C. overnight. The next day, the plate was blocked by PBST-BSA buffer, then serially diluted samples of anti-B7H4/CD40 bi-specific antibodies were pipetted into appropriate wells at 50 μL/well, and the plate was incubated for 1 h followed by Washing. Human CD40 ECD protein (mouse IgG2a Fc tag) was added into the plate at 50 μL/well. After 1-hour incubation at room temperature, HRP-conjugated anti-mouse IgG (H+L) antibody was added into the plate at 100 μL/well. The plate was incubated for 1 hour at room temperature followed by washing. TMB substrate solution was added at 100 μL/well and the color development was stopped by adding 100 uL/well Stop Solution (2N H2SO4). Absorbance at 450 nm and 620 nm was read by Tecan F200 Pro plate reader. GraphPad 7.0, “[Agonist] vs. response—Variable slope (four parameters)” was used to plot the binding data and calculate binding EC50 values.

T3 sequence (P25942 21-193): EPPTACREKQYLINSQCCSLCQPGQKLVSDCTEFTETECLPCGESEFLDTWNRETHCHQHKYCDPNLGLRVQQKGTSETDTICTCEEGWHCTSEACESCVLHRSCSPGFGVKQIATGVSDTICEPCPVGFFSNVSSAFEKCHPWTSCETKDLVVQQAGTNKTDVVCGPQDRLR
T2 sequence (P25942 21-277): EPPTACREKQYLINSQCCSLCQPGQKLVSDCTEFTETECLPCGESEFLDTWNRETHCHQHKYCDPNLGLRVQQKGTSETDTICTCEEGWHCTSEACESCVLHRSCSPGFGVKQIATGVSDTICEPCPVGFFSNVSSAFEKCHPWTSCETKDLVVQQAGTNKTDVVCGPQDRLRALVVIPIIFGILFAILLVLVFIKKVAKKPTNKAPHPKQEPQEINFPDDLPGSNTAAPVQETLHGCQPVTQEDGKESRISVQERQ

Binder | binding result [1] | binding result [2] | binding result [3]
Ly479 (bispecific antibody, human IgG1, kappa, Ly361 HC-TM559 scFv VH-VL + Ly361 LC) heavy: EVQLVESGGDLVKPGGSLKLSCAASGFTFSSYGMSWVRQTPDKRLEWVAAISTGGSYTYYPDSVKGRFTISRDTATNTLYLQMSTLKSEDTAMYYCTRRGATGSWFAYWGQGTLVTVSAASTKGPSVFPLAPSSKSTSGGTAALGCLVKDYFPEPVTVSWNSGALTSGVHTFPAVLQSSGLYSLSSVVTVPSSSLGTQTYICNVNHKPSNTKVDKKVEPKSCDKTHTCPPCPAPELLGPSVFLFPPKPKDTLMISRTPEVTCVVVDVSHEDPEVKFNWYVDGVEVHNAKTKPREEQYNSTYRVVSVLTVLHQDWLNGKEYKCKVSNKALPAPIEKTISKAKGQPREPQVYTLPPSREEMTKNQVSLTCLVKGFYPSDIAVEWESNGQPENNYKTTPPVLDSDGSFFLYSKLTVDKSRWQQGNVFSCSVMHEALHNHYTQKSLSLSPGGGGGSGGGGSGGGGSGGGGSEVQLVESGGGLVQPGGSLRLSCAASGFTFTNYGLHWVRQAPGKGLEWVSSISPSGGVTYYRDSVKGRFTISRDNSKNTLYLQMNSLRAEDTAVYYCAKPFLGWGGANWIAHWGQGTLVTVSSGGGGSGGGGSGGGGSGGGGSDIQMTQSPSSLSASVGDRVTITCLASEDISNDLAWYQQKPGKAPKLLIYFVDRLLDGVPSRFSGSGSGTDFTLTISSLQPEDFATYYCQQSYKYPPTFGQGTKLEIK light: DILMTQSPSSMSVSLGDTVSITCHASQGINNNIGWLQRKPGKSFKGLIYHGTNLEDGVPSRFSGSGSGADYSLTISSLESEDFADYYCVQYVQFPRTFGGGTKLEIKRTVAAPSVFIFPPSDEQLKSGTASVVCLLNNFYPREAKVQWKVDNALQSGNSQESVTEQDSKDSTYSLSSTLTLSKADYEKHKVYACEVTHQGLSSPVTKSFNRGEC | binds | binds | binds
Ly482 (bispecific antibody, human IgG1, kappa, Ly361 HC (IgG1 mutated Fc)-Ly253 scFv VL-VH + Ly361 LC) heavy: not shown light: DILMTQSPSSMSVSLGDTVSITCHASQGINNNIGWLQRKPGKSFKGLIYHGTNLEDGVPSRFSGSGSGADYSLTISSLESEDFADYYCVQYVQFPRTFGGGTKLEIKRTVAAPSVFIFPPSDEQLKSGTASVVCLLNNFYPREAKVQWKVDNALQSGNSQESVTEQDSKDSTYSLSSTLTLSKADYEKHKVYACEVTHQGLSSPVTKSFNRGEC | binds | binds | binds
Ly483 (bispecific antibody, human IgG1, kappa, Ly361 HC (IgG1 mutated Fc)-Ly253 scFv VH-VL + Ly361 LC) heavy: not shown light: DILMTQSPSSMSVSLGDTVSITCHASQGINNNIGWLQRKPGKSFKGLIYHGTNLEDGVPSRFSGSGSGADYSLTISSLESEDFADYYCVQYVQFPRTFGGGTKLEIKRTVAAPSVFIFPPSDEQLKSGTASVVCLLNNFYPREAKVQWKVDNALQSGNSQESVTEQDSKDSTYSLSSTLTLSKADYEKHKVYACEVTHQGLSSPVTKSFNRGEC | binds | binds | binds
Ly487 (bispecific antibody, human IgG1, kappa, Ly366 HC (IgG1 mutated Fc)-TM740 scFv VH-VL + Ly366 LC) heavy: EVQLVESGGGLVKPGGSLKLSCAASGFTFSDSGMHWVRQAPEKGLEWITYINSGSSTIYYADSVKGRFTISRDNAKNTLFLQMTSLRSEDTAMYYCARGRGYAMDYWGQGTSVTVSSASTKGPSVFPLAPSSKSTSGGTAALGCLVKDYFPEPVTVSWNSGALTSGVHTFPAVLQSSGLYSLSSVVTVPSSSLGTQTYICNVNHKPSNTKVDKKVEPKSCDKTHTCPPCPAPELLGPSVFLFPPKPKDTLMISRTPEVTCVVVDVSHEDPEVKFNWYVDGVEVHNAKTKPREEQYNSTYRVVSVLTVLHQDWLNGKEYKCKVSNKALPAPIEKTISKAKGQPREPQVYTLPPSREEMTKNQVSLTCLVKGFYPSDIAVEWESNGQPENNYKTTPPVLDSDGSFFLYSKLTVDKSRWQQGNVFSCSVMHEALHNHYTQKSLSLSPGGGGGSGGGGSGGGGSGGGGSQVQLVESGGGLVQPGGSLKLSCATSGFNFNDYFMNWVRQASGKGLEWVGQIRNKNYNYATYYTESLEGRVTISRDDSKNTAYLQMNSLKTEDTAVYYCTSYYYDGFADYFDYWGQGTTVTVSSGGGGSGGGGSGGGGSGGGGSDIQMTQSPSSLSASVGDRVTITCKASQNIYIYLNWYQQKPGKAPKLLIYNTNNLQTGVPSRFSGSGSGTDFTLTISSLQPEDFATYYCLQHSSRRTFGGGTKVEIK light: EIVLTQSPTTMAASPGEKITIFCSASSSISSDFLHWYQQKPGFSPKLLIYRISNLASGVPARFSGSGSGTSYSLTIGTMEAEDVATYYCQQGSNVPRTFGGGTKLEIKRTVAAPSVFIFPPSDEQLKSGTASVVCLLNNFYPREAKVQWKVDNALQSGNSQESVTEQDSKDSTYSLSSTLTLSKADYEKHKVYACEVTHQGLSSPVTKSFNRGEC | binds | binds | binds
Ly495 (bispecific antibody, human IgG1, kappa, Ly366 HC (IgG1 mutated Fc)-Ly253 scFv VH-VL + Ly366 LC) heavy: not shown light: EIVLTQSPTTMAASPGEKITIFCSASSSISSDFLHWYQQKPGFSPKLLIYRISNLASGVPARFSGSGSGTSYSLTIGTMEAEDVATYYCQQGSNVPRTFGGGTKLEIKRTVAAPSVFIFPPSDEQLKSGTASVVCLLNNFYPREAKVQWKVDNALQSGNSQESVTEQDSKDSTYSLSSTLTLSKADYEKHKVYACEVTHQGLSSPVTKSFNRGEC | binds | binds | binds

Next, values leading:

binding result [1] | binding result [2] | binding result [3] | Binder
binds | binds | binds | Ly491 (bispecific antibody, human IgG1, kappa, Ly366 HC (IgG1 mutated Fc)-TM559 scFv VH-VL + Ly366 LC) heavy: EVQLVESGGGLVKPGGSLKLSCAASGFTFSDSGMHWVRQAPEKGLEWITYINSGSSTIYYADSVKGRFTISRDNAKNTLFLQMTSLRSEDTAMYYCARGRGYAMDYWGQGTSVTVSSASTKGPSVFPLAPSSKSTSGGTAALGCLVKDYFPEPVTVSWNSGALTSGVHTFPAVLQSSGLYSLSSVVTVPSSSLGTQTYICNVNHKPSNTKVDKKVEPKSCDKTHTCPPCPAPELLGPSVFLFPPKPKDTLMISRTPEVTCVVVDVSHEDPEVKFNWYVDGVEVHNAKTKPREEQYNSTYRVVSVLTVLHQDWLNGKEYKCKVSNKALPAPIEKTISKAKGQPREPQVYTLPPSREEMTKNQVSLTCLVKGFYPSDIAVEWESNGQPENNYKTTPPVLDSDGSFFLYSKLTVDKSRWQQGNVFSCSVMHEALHNHYTQKSLSLSPGGGGGSGGGGSGGGGSGGGGSEVQLVESGGGLVQPGGSLRLSCAASGFTFTNYGLHWVRQAPGKGLEWVSSISPSGGVTYYRDSVKGRFTISRDNSKNTLYLQMNSLRAEDTAVYYCAKPFLGWGGANWIAHWGQGTLVTVSSGGGGSGGGGSGGGGSGGGGSDIQMTQSPSSLSASVGDRVTITCLASEDISNDLAWYQQKPGKAPKLLIYFVDRLLDGVPSRFSGSGSGTDFTLTISSLQPEDFATYYCQQSYKYPPTFGQGTKLEIK light: EIVLTQSPTTMAASPGEKITIFCSASSSISSDFLHWYQQKPGFSPKLLIYRISNLASGVPARFSGSGSGTSYSLTIGTMEAEDVATYYCQQGSNVPRTFGGGTKLEIKRTVAAPSVFIFPPSDEQLKSGTASVVCLLNNFYPREAKVQWKVDNALQSGNSQESVTEQDSKDSTYSLSSTLTLSKADYEKHKVYACEVTHQGLSSPVTKSFNRGEC
binds | binds | binds | Ly490 (bispecific antibody, human IgG1, kappa, Ly366 HC (IgG1 mutated Fc)-TM559 scFv VL-VH + Ly366 LC) heavy: EVQLVESGGGLVKPGGSLKLSCAASGFTFSDSGMHWVRQAPEKGLEWITYINSGSSTIYYADSVKGRFTISRDNAKNTLFLQMTSLRSEDTAMYYCARGRGYAMDYWGQGTSVTVSSASTKGPSVFPLAPSSKSTSGGTAALGCLVKDYFPEPVTVSWNSGALTSGVHTFPAVLQSSGLYSLSSVVTVPSSSLGTQTYICNVNHKPSNTKVDKKVEPKSCDKTHTCPPCPAPELLGPSVFLFPPKPKDTLMISRTPEVTCVVVDVSHEDPEVKFNWYVDGVEVHNAKTKPREEQYNSTYRVVSVLTVLHQDWLNGKEYKCKVSNKALPAPIEKTISKAKGQPREPQVYTLPPSREEMTKNQVSLTCLVKGFYPSDIAVEWESNGQPENNYKTTPPVLDSDGSFFLYSKLTVDKSRWQQGNVFSCSVMHEALHNHYTQKSLSLSPGGGGGSGGGGSGGGGSGGGGSDIQMTQSPSSLSASVGDRVTITCLASEDISNDLAWYQQKPGKAPKLLIYFVDRLLDGVPSRFSGSGSGTDFTLTISSLQPEDFATYYCQQSYKYPPTFGQGTKLEIKGGGGSGGGGSGGGGSGGGGSEVQLVESGGGLVQPGGSLRLSCAASGFTFTNYGLHWVRQAPGKGLEWVSSISPSGGVTYYRDSVKGRFTISRDNSKNTLYLQMNSLRAEDTAVYYCAKPFLGWGGANWIAHWGQGTLVTVSS light: EIVLTQSPTTMAASPGEKITIFCSASSSISSDFLHWYQQKPGFSPKLLIYRISNLASGVPARFSGSGSGTSYSLTIGTMEAEDVATYYCQQGSNVPRTFGGGTKLEIKRTVAAPSVFIFPPSDEQLKSGTASVVCLLNNFYPREAKVQWKVDNALQSGNSQESVTEQDSKDSTYSLSSTLTLSKADYEKHKVYACEVTHQGLSSPVTKSFNRGEC
binds | binds | binds | Ly494 (bispecific antibody, human IgG1, kappa, Ly366 HC (IgG1 mutated Fc)-Ly253 scFv VL-VH + Ly366 LC) heavy: not shown light: EIVLTQSPTTMAASPGEKITIFCSASSSISSDFLHWYQQKPGFSPKLLIYRISNLASGVPARFSGSGSGTSYSLTIGTMEAEDVATYYCQQGSNVPRTFGGGTKLEIKRTVAAPSVFIFPPSDEQLKSGTASVVCLLNNFYPREAKVQWKVDNALQSGNSQESVTEQDSKDSTYSLSSTLTLSKADYEKHKVYACEVTHQGLSSPVTKSFNRGEC
